In one data set the target is T1, human cKIT ECD (Homo sapiens, UniProt P10721).
T1 construct: Human cKIT tr. variant 2 , residues 26-520-TAG; His6 (C); made in house; host or cells: HEK293 derived cell lines (293FS), transient transfection
Kind of data set: SPR (Biacore 2000) affinity measurement. It counts as binding. The note with it: Table 5. The procedure:
Affinity of the antibodies to cKIT species orthologues and also to cKIT was determined using SPR technology using a Biacore® 2000 instrument (GE Healthcare, Pittsburgh, Pa.) and with CM5 sensor chips.
Briefly, HBS-P (0.01 M HEPES, pH 7.4, 0.15 M NaCl, 0.005% Surfactant P20) supplemented with 2% Odyssey® blocking buffer (Li-Cor Biosciences, Lincoln, Nebr.) was used as the running buffer for all the experiments. The immobilization level and analyte interactions were measured by response unit (RU). Pilot experiments were performed to test and confirm the feasibility of the immobilization of the anti-human Fc antibody (Catalog number BR100839, GE Healthcare, Pittsburgh, Pa.) and the capture of the test antibodies.
For kinetic measurements, the experiments were performed in which the antibodies were captured to the sensor chip surface via the immobilized anti-human Fc antibody and the ability of the cKIT proteins to bind in free solution was determined. Briefly, 25 μg/ml of anti-human Fc antibody at pH 5 was immobilized on a CM5 sensor chip through amine coupling at flow rate of 5 μl/minute on all two flow cells to reach 10,500 RUs. 0.1-1 μg/ml of test antibodies were then injected at 10 μl/min for 1 minute. Captured levels of the antibodies were generally kept below 200 RUs. […]
For orientation: SPR reads the build-up and loss of mass on a sensor chip optically.

For the next data set, the system named is primary human mast cells. Kind of data set: Mast cell degranulation (β-hexosaminidase release). Type of data set: cell-based. Conditions: 0.05-100 nM, 90 min. The procedure: Primary human mast cells were cultured from peripheral human blood according to the methods described by Saito et al., (supra). […] Cells were then centrifuged and the supernatants were transferred into 96-well black-walled plates prior to the addition of the β-hexosaminidase substrate. Following 90 min incubation at 37° C., the reaction was stopped by the addition of tris-base (Sigma, Cat # T1503-500G, pH 12, St. Louis, Mo.) and the fluorescence intensity was recorded on the Envision® plate reader.

T1 sequence (P10721 26-520 isoform P10721-2): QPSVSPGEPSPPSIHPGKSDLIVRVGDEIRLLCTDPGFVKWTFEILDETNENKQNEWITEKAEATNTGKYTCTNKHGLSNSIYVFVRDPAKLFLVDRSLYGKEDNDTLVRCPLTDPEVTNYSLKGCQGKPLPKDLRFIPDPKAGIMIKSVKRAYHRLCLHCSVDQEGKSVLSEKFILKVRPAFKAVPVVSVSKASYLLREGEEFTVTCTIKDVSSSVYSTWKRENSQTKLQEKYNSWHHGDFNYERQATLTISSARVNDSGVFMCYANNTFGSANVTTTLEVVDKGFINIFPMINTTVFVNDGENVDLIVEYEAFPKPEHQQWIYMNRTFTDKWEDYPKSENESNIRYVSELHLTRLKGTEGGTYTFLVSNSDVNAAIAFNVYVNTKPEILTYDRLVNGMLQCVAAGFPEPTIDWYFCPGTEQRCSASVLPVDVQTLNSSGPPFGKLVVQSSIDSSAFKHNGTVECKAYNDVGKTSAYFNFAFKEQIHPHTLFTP

B1: NEG085: anti-cKIT antibody of Table 1; VH SEQ ID NO 82, VL SEQ ID NO 91; derived from 9P3 (antibody, V domains shown)
VH: EVQLVESGGGLVQPGGSLRLSCAASGFAFSGYYMAWVRQAPGKGLEWVANINYPGSSTYYLDSVKGRFTISRDNAKNSLYLQMNSLRAEDTAVYYCARGDYYGTTYWYFDVWGQGTTVTVSS
VL: DIQMTQSPSSLSASVGDRVTITCRASQSISSYLNWYQQKPGKAPKLLIYYTSRLQSGVPSRFSGSGSGTDFTLTISSLQPEDFATYYCQQGRRLWSFGGGTKVEIK
For the molecule B1, in the data set with human cKIT ECD, the “reaction with human cKIT” value is given as “nanomolar level”. Moreover, in the data set with primary human mast cells, the mast cell degranulation result is “do not induce mast cell degranulation of human primary mast cells ex vivo”.
